Article PMC8514121 (Science signaling, 2020)
Positions count from the first letter of the chain named. Names may count otherwise.

T1: Aurora A kinase domain (residues 116 to 389) (human, UniProt O14965 116-389)
T1 sequence (looked up): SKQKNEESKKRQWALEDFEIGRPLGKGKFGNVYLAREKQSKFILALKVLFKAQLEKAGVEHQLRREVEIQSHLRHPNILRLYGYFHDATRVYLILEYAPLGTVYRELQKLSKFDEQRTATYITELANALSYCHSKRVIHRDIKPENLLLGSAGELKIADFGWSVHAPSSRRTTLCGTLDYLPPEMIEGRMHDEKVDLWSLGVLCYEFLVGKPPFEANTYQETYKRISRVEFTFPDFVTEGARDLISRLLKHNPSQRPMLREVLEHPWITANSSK

B1: CoAlated unphosphorylated C247V + C319V t-Aurora A (domain or fragment, UniProt Q9ULW0 7-20, looked up)
chain: SYSYDAPSDFINFSSKQKNEESKKRQWALEDFEIGRPLGKGKFGNVYLAREKQSKFILALKVLFKAQLEKAGVEHQLRREVEIQSHLRHPNILRLYGYFHDATRVYLILEYAPLGTVYRELQKLSKFDEQRTATYITELANALSYVHSKRVIHRDIKPENLLLGSAGELKIADFGWSVHAPSSRRTTLCGTLDYLPPEMIEGRMHDEKVDLWSLGVLVYEFLVGKPPFEANTYQETYKRISRVEFTFPDFVTEGARDLISRLLKHNPSQRPMLREVLEHPWITANSSK
modifications: coenzyme A disulfide adduct (CoAlation) on Cys290 on approximately two thirds of the protein; unphosphorylated
B2: t-Aurora A C247V + D256N + C319V kinase-dead mutant (Cys290-Cys290 disulfide homodimer) (domain or fragment, UniProt Q9ULW0 7-20, looked up)
chain: B1 chain with D155N
modifications: disulfide bond between Cys290 of the two monomers
B3: t-Aurora A C247V + C319V double mutant, unphosphorylated, catalytically active (used for the disulfide homodimer) (domain or fragment, UniProt Q9ULW0 7-20, looked up)
chain: B1 chain

Tests used:
[1] = target: T1, Aurora A kinase domain (residues 116 to …); assay: crystal structure
crystal structure = target: the molecule itself; assay: crystal structure
cross-linking = target: the molecule itself; assay: cross-linking

| Binder | binding result (crystal structure) | further results |
| --- | --- | --- |
| SYSYDAPSDFINFS (domain or fragment, UniProt Q9ULW0 7-20, looked up) [TPX2 fragment (residues 7 to 20)] |  | binding result [1]: binds |
| B1 | binds |  |
| B2 | binds |  |
| B3 |  | binding result (cross-linking): binds |
